Columns and labels:
Assay in all cases: cell-based or functional assay
[1] = biological target: enterovirus 71 (EV71) virions (enterovirus 71)
[2] = biological target: enterovirus 71 (EV71) virions (enterovirus 71); remark: listed apart in the source
[3] = biological target: enterovirus 71 (EV71) virions (enterovirus 71); remark: listed apart in the source

| Binder | Inhibitory concentration 50 (IC50), Vero ATCC [1] | Inhibitory concentration 50 (IC50), Vero NIBSC [1] | end point PRNT50, Vero ATCC [1] | end point PRNT50, Vero NIBSC [1] | IC50 in ATCC cells relative to the parental antibody [2] | IC50 in NIBSC cells relative to the parental mouse antibody [2] | Average IC50 [3] | IC50 (#1) [3] | IC50 (#2) [3] |
| --- | --- | --- | --- | --- | --- | --- | --- | --- | --- |
| Recombinant chimeric E18 VL + VH (antibody, V domains shown) VH: QIQLVQSGPELKKPGETVKISCKASGYTFTRYGMSWVKQAPGKGLKWMGWINTYSGVPTYADDFKGRFAFSLETSASTAYLQINNLKNEDTATYFCARRGYSNYYPMDFWGQGTSVTVSS VL: DIKMTQSPSSMYASLGERVTITCKASQDIKSYLSWYQQKPWKSPKTLIYYAKNLADGVPSRFSGSGFGQDYSLTISSLESDDTATYYCLQHGESPYTFGSGTKLEIKR | 585 ng/mL | 966 ng/mL | 625 ng/mL | 2500 ng/mL | ~2 fold | ~5 fold | – | – | – |
| Recombinant chimeric E20 VL + VH (antibody, V domains shown) VH: EVQLVESGGGLVKPGGSLKLSCAASGFTFNIYAMSWVRQTPEKRLEWVATISDGGSYTYYPDNVKGRFTISRDNAKNNLYLQMSHLKSEDTAMYYCVRDRGNYYSRAFPYAYWGQGTLVTVSA VL: SIVMTQTPKFLPVSAGDRVTMTCKASQSVGNNVAWYQQKSGQSPKLLIYYASNRYTGVPDRFTGSGSGTDFTFTISSVQVEDLAVYFCQQHYSSPPTFGAGTKLELK | 3180 ng/mL | – | 5000 ng/mL | > 10000 ng/mL | – | – | – | – | – |
| hVL1 + hVH1 E19 (antibody, V domains shown) VH: DVQLQESGPGLVKPSQTLSLTCTVSGYSITSGFYLNWIRQHPCKGLEWIGYINYGGSINYNPSLKSRVTISRDTSKNQFSLKLSSVTAADTAVYYCATMPNSWYFDVWGRGTLVTVSS VL: not shown | – | – | – | – | – | – | 89.2 ng/mL | 56.5 ng/mL | 122 ng/mL |
| hVL1 + hVH2 E19 (antibody, V domains shown) VH: DVQLQESGPGLVKPSQTLSLTCTVSGYSITSGFYLNWIRQHPGKKLEWIGYINYGGSINYNPSLKSRVTISRDTSKNQFSLKLSSVTAADTAVYYCATMPNSWYFDVWGTGTLVTVSS VL: not shown | – | – | – | – | – | – | 119 ng/mL | 118 ng/mL | 121 ng/mL |
| hVL1 + hVH3 E19 (antibody, V domains shown) VH: EVQLVESGPGLVKPSQTLSLTCTVSGYSITSGFYLNWVRQHPGKKLEWIGYINYGGSINYNPSLKSRVSISRDTSKNQFSLKLTSVTAADTAVYYCATMPNSWYFDVWGTGTLVTVSS VL: not shown | – | – | – | – | – | – | 89.6 ng/mL | 96.5 ng/mL | 82.6 ng/mL |

Reference: patent US20160333075A1 (MAB EXPLORATIONS SDN BHD, published 2016)
